Experimental data taken from the RNAGym collection of RNA variant scans (doi:10.1101/gr.219683.116).

B1: mRNA-splicing (parent)
chain: AGUUGCUGCUGGGAGCUCCAGCACAGUGAAAUGGACAGAAGGGCAGAGCAA

Variants of: B1
Assay: exon inclusion enrichment index; higher = more inclusion; WT1 exon 5 minigene, HEK293

Row | Variant | exon inclusion enrichment index
1 | G5C C6U G8C C9U U10C G26U U27A | 0.886
2 | G5C C6U G8C C9U U10C G41U G42C | 2.93
3 | G5C C6U G8C C9U U10C G41U G42A | 0.727
4 | G5C C6U G8C C9U U10C G41U G42U | 1.74
5 | G5C C6U G8C C9U U10C G46U A47G | 1.76
6 | G5C C6U G8C C9U U10C G46U A47C | 2.75
7 | G5C C6U G8C C9U U10C G46U A47U | 2.05
8 | G5C U7A G8C C9U U10C | 0.259
9 | G5C C6U G8C C9U U10C G11A G12A | 0.685
10 | G5C C6U G8C C9U U10C G11A G12C | 0.41
11 | G5C C6U G8C C9U U10C G11A G12U | 0.314
12 | G5C C6U U7A C9A U10A | 0.0605
13 | G5U C6A G8U C9U | 0.0752
14 | G5C C6U G8C C9U U10C U27A G28A | 2.06
15 | G5C C6U G8C C9U U10C U27A G28C | 2.07
16 | G5C C6U G8C C9U U10C U27A G28U | 0.824
17 | G5C G8U C9U | 0.0356
18 | G5C C6U G8C C9U U10C G13U A14C | 0.936
19 | G5C C6U G8C C9U U10C G13U A14U | 0.592
20 | G5C C6U G8C C9U U10C G13U A14G | 0.52
21 | G5C C6U G8C C9U U10C G15A | 0.641
22 | G5C C6U G8C C9U U10C G15C | 2.54
23 | G5C C6U G8C C9U U10C G15U | 2.23
24 | G5C C6U U7C G8A C9U U10C | 1.99

Row | Variant | exon inclusion enrichment index
25 | G5C U7G G8A U10A | 0.113
26 | G5C C6U U7A G8U C9A | 0.195
27 | G5C C6U G8C C9U U10C C19A | 0.881
28 | G5C C6U G8C C9U U10C C19U | 0.105
29 | G5C C6U G8C C9U U10C C19G | 1.61
30 | G5C C6U U7A G8U C9U U10C | 0.663
31 | G5C C6U G8C C9U U10C G28U A29C | 1.48
32 | G5C C6U G8C C9U U10C G28U A29G | 1.84
33 | G5C C6U G8C C9U U10C G28U A29U | 0.419
34 | G5C C6U G8C C9U U10C G28A A29G | 0.736
35 | G5C C6U G8C C9U U10C G28A A29C | 1.12
36 | G5C C6U G8C C9U U10C G28A A29U | 0.475
37 | G5C C6U G8C C9U U10C G13A A14U | 2.38
38 | G5C C6U G8C C9U U10C G13A A14C | 2.59
39 | G5C C6U G8C C9U U10C G13A A14G | 2.03
40 | G5C C6U G8C C9U U10C G43A | 3.52
41 | G5C C6U G8C C9U U10C G43U | 1.51
42 | G5C C6U G8C C9U U10C G43C | 1.75
43 | G5C C6U G8C C9U U10G G11C | 2.13
44 | G5C C6U G8C C9U U10G G11U | 1.56
45 | G5C C6U G8C C9U U10G G11A | 2
46 | G5C C6U G8C C9U U10C G46A A47C | 2.56
47 | G5C C6U G8C C9U U10C G46A A47U | 2.29
48 | G5C C6U G8C C9U U10C G46A A47G | 0.717

Row | Variant | exon inclusion enrichment index
49 | G5C C6U G8C C9U U10C C44G A45G | 0.398
50 | G5C C6U G8C C9U U10C C44G A45C | 3.14
51 | G5C C6U G8C C9U U10C C44G A45U | 1.26
52 | G5U C6A U7C G8U C9U | 0.164
53 | G5U C6A U7C U10C | 3.2
54 | G5C C6U U7C G8C C9U U10C | 1.73
55 | G5C C6U U7G U10C | 0.82
56 | G5C C6U U7G G8C C9U U10C | 1.54
57 | G5C C6U G8C C9U U10C G28C A29G | 2.82
58 | G5C C6U G8C C9U U10C G28C A29U | 1.13
59 | G5C C6U G8C C9U U10C G28C A29C | 1.58
60 | G5C C6U U7C C9U U10C | 3.09
61 | G5C C6U G8C C9U U10C G41A | 1.33
62 | G5C C6U G8C C9U U10C G41C | 3.06
63 | G5C C6U G8C C9U U10C G41U | 2.03
64 | G5C C6U U7A U10C | 0.444
65 | G5C C6U G8C C9U U10C G11U G12C | 0.558
66 | G5C C6U G8C C9U U10C G11U G12A | 0.0218
67 | G5C C6U G8C C9U U10C G11U G12U | 0.188
68 | G5C C6U G8C C9U U10C G42A G43C | 4.2
69 | G5C C6U G8C C9U U10C G42A G43U | 3.86
70 | G5C C6U G8C C9U U10C G42A G43A | 4.1
71 | G5C C6U U7G C9A | 1.42
72 | G5C C6U G8C C9U U10C G43U C44U | 0.567

Row | Variant | exon inclusion enrichment index
73 | G5C C6U G8C C9U U10C G43U C44G | 0.398
74 | G5C C6U G8C C9U U10C G43U C44A | 0.0354
75 | G5C C6U G8C C9U U10C C44U A45C | 2.63
76 | G5C C6U G8C C9U U10C C44U A45U | 1.28
77 | G5C C6U G8C C9U U10C C44U A45G | 1.03
78 | G5C C6U G8C C9U U10C G38U A39C | 1.39
79 | G5C C6U G8C C9U U10C G38U A39G | 0.734
80 | G5C C6U G8C C9U U10C G38U A39U | 0.0819
81 | G5C C6U G8C C9U U10C G33C G34C | 1.12
82 | G5C C6U G8C C9U U10C G33C G34U | 1.29
83 | G5C C6U G8C C9U U10C G33C G34A | 1.24
84 | G5C C6U G8C C9U U10C G33C | 2.15
85 | G5C C6U G8C C9U U10C G33U | 0.658
86 | G5C C6U G8C C9U U10C G33A | 0.198
87 | G5C C6U G8C C9U U10C G15U C16G | 1.44
88 | G5C C6U G8C C9U U10C G15U C16A | 1.38
89 | G5C C6U G8C C9U U10C G15U C16U | 1.32
90 | G5C C6U G8C C9U U10C U32C G33C | 2.66
91 | G5C C6U G8C C9U U10C U32C G33A | 0.84
92 | G5C C6U G8C C9U U10C U32C G33U | 1.28
93 | G5C C6U G8C U10G | 1.68
94 | G5C C6U G8C U10A | 0.518
95 | G5C C6U G8C U10C | 2.2
96 | G5C C6U G8C C9U U10C G34C A35U | 0.385

Row | Variant | exon inclusion enrichment index
97 | G5C C6U G8C C9U U10C G34C A35C | 0.141
98 | G5C C6U G8C C9U U10C G34C A35G | 1.38
99 | G5C U7A G8U C9A | 0.077
100 | G5C C6U G8C C9U U10C G38C A39G | 1.77
101 | G5C C6U G8C C9U U10C G38C A39U | 0.141
102 | G5C C6U G8C C9U U10C G38C A39C | 1.84
103 | G5C C6U U7A G8A U10A | 0.064
104 | G5C U10C | 1.29
105 | G5U C6A U7A C9A U10A | 0.0813
106 | G5C C6U G8C C9U U10C C24G A25C | 3.27
107 | G5C C6U G8C C9U U10C C24G A25U | 2.32
108 | G5C C6U G8C C9U U10C C24G A25G | 0.981
109 | G5C U7G C9A | 1.66
110 | G5C C6U G8C C9U U10C G26U | 2.06
111 | G5C C6U G8C C9U U10C G26A | 2.49
112 | G5C C6U G8C C9U U10C G26C | 2.29
113 | G5C C6U G8C C9U U10C C36A A37C | 2.33
114 | G5C C6U G8C C9U U10C C36A A37U | 0.939
115 | G5C C6U G8C C9U U10C C36A A37G | 0.805
116 | G5C C6U G8C C9U U10C G46C A47C | 1.76
117 | G5C C6U G8C C9U U10C G46C A47G | 2.72
118 | G5C C6U G8C C9U U10C G46C A47U | 1.64
119 | G5C C6U G8C C9U U10C U27G G28A | 2.11
120 | G5C C6U G8C C9U U10C U27G G28U | 0.00454

Row | Variant | exon inclusion enrichment index
121 | G5C C6U G8C C9U U10C U27G G28C | 1.04
122 | G5U C6A | 0.00655
123 | G5C U7C C9A U10C | 0.262
124 | G5C C6U G8C C9U U10C U27C G28U | 1.2
125 | G5C C6U G8C C9U U10C U27C G28C | 2.52
126 | G5C C6U G8C C9U U10C U27C G28A | 1.89
127 | G5C C6U G8C C9U U10C U32A | 1.46
128 | G5C C6U G8C C9U U10C U32C | 3.26
129 | G5C C6U G8C C9U U10C U32G | 0.212
130 | G5C C6U G8C C9U U10C C44A A45G | 2.98
131 | G5C C6U G8C C9U U10C C44A A45C | 3.61
132 | G5C C6U G8C C9U U10C C44A A45U | 4.04
133 | G5C C6U G8C C9U U10C G21A C22A | 0.718
134 | G5C C6U G8C C9U U10C G21A C22U | 0.846
135 | G5C C6U G8C C9U U10C G21A C22G | 1.93
136 | G5C C6U G8C C9U U10C G43C C44U | 1.6
137 | G5C C6U G8C C9U U10C G43C C44A | 3.17
138 | G5C C6U G8C C9U U10C G43C C44G | 4.6
139 | G5C C6U U7A C9U U10C | 0.234
140 | G5C C6U G8C C9U U10C G41C G42C | 2.99
141 | G5C C6U G8C C9U U10C G41C G42A | 2
142 | G5C C6U G8C C9U U10C G41C G42U | 2.93
143 | G5C C6U G8C C9U U10C G12C | 1.51
144 | G5C C6U G8C C9U U10C G12U | 1.11

Row | Variant | exon inclusion enrichment index
145 | G5C C6U G8C C9U U10C G12A | 0.889
146 | G5C C6U G8C C9U U10C U17A C18U | 1.58
147 | G5C C6U G8C C9U U10C U17A C18G | 1.83
148 | G5C C6U G8C C9U U10C U17A C18A | 1.32
149 | G5C C6U G8C C9U U10C G12U G13C | 0.698
150 | G5C C6U G8C C9U U10C G12U G13U | 0.0261
151 | G5C C6U G8C C9U U10C G12U G13A | 0.153
152 | G5C C6U G8C C9U U10C G38A A39U | 0.134
153 | G5C C6U G8C C9U U10C G38A A39C | 1.48
154 | G5C C6U G8C C9U U10C G38A A39G | 1.85
155 | G5U C6A U7A G8U C9U | 0.0678
156 | G5U C6A U7A G8U C9A | 0.0741
157 | G5C C6U G8C C9U U10C G46A | 2.05
158 | G5C C6U G8C C9U U10C G46U | 1.35
159 | G5C C6U G8C C9U U10C G46C | 1.62
160 | G5C U7A G8A U10A | 0.0423
161 | G5C C6U G8C C9U U10C G43A C44A | 3.42
162 | G5C C6U G8C C9U U10C G43A C44U | 2
163 | G5C C6U G8C C9U U10C G43A C44G | 3.59
164 | G5C U7A C9A U10A | 0.367
165 | G5C C6U G8C C9U U10C G28A | 0.598
166 | G5C C6U G8C C9U U10C G28U | 0.486
167 | G5C C6U G8C C9U U10C G28C | 1.55
